One series addresses FANCD2 WT;FANCI (Homo sapiens;Homo sapiens?, UniProt Q9BXW9;Q9NVI1 1-1451;1-1328, |). As to the kind of experiment: EMSA; untreated; EMSA: 1 nM DNA, 25 mM Tris-HCl pH 7.5, 100 mM NaCl, 1 mM EDTA, 6% glycerol, 1 mM DTT, room temperature 1 h; 4% PAGE 0.4x TBE at 4 C. The note with it: protein: recombinant;recombinant; copies: 1;1.
A further series addresses FANCD2-6A;FANCI (Homo sapiens;Homo sapiens?, UniProt Q9BXW9;Q9NVI1 1-1451;1-1328, S882A;T884A;S886A;S891A;T896A;S898A|). As to the kind of experiment: EMSA; untreated; similar to WT; EMSA: 1 nM DNA, 25 mM Tris-HCl pH 7.5, 100 mM NaCl, 1 mM EDTA, 6% glycerol, 1 mM DTT, room temperature 1 h; 4% PAGE 0.4x TBE at 4 C. The following applies: protein: recombinant;recombinant; copies: 1;1. (In general: In EMSA bound probe runs differently from free probe, usually more slowly.)

Sequence of FANCD2 WT;FANCI (Q9BXW9 whole entry, chain 1 of 2): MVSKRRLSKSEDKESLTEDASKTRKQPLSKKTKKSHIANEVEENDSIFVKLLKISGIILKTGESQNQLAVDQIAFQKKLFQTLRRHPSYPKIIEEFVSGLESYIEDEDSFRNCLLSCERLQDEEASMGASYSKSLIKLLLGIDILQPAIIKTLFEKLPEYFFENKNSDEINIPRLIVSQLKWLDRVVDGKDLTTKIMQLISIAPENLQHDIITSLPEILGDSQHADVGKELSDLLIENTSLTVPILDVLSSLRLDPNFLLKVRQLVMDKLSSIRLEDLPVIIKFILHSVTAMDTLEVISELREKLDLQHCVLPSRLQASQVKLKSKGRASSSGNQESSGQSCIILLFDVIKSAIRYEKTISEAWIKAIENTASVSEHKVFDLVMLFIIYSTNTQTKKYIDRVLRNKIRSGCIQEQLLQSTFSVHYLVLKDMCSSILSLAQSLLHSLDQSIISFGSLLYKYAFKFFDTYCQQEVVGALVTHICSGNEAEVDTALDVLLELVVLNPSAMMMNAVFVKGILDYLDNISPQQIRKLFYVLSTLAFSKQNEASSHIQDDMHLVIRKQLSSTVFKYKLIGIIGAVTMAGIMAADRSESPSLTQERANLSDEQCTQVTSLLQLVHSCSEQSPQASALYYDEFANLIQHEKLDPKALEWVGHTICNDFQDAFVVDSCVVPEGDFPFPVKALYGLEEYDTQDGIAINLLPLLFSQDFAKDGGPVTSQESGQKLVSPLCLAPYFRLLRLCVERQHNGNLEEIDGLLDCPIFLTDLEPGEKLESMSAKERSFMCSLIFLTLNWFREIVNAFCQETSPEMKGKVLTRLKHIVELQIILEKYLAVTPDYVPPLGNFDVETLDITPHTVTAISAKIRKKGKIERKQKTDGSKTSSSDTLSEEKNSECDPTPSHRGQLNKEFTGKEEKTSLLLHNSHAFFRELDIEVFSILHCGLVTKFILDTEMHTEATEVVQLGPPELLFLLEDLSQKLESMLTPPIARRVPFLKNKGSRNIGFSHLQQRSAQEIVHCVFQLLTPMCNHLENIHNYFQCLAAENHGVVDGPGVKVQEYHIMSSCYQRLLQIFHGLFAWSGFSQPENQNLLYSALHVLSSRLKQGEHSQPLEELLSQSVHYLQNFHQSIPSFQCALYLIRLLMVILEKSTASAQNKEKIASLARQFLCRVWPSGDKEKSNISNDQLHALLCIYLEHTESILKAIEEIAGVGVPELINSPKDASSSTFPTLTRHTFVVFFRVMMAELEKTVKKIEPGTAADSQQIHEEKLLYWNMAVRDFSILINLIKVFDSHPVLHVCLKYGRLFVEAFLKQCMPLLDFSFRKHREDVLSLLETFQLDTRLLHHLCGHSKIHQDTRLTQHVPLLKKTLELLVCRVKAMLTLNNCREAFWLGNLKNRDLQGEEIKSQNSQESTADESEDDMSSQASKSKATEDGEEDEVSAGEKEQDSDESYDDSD
Sequence of FANCD2 WT;FANCI (Q9NVI1 whole entry, chain 2 of 2): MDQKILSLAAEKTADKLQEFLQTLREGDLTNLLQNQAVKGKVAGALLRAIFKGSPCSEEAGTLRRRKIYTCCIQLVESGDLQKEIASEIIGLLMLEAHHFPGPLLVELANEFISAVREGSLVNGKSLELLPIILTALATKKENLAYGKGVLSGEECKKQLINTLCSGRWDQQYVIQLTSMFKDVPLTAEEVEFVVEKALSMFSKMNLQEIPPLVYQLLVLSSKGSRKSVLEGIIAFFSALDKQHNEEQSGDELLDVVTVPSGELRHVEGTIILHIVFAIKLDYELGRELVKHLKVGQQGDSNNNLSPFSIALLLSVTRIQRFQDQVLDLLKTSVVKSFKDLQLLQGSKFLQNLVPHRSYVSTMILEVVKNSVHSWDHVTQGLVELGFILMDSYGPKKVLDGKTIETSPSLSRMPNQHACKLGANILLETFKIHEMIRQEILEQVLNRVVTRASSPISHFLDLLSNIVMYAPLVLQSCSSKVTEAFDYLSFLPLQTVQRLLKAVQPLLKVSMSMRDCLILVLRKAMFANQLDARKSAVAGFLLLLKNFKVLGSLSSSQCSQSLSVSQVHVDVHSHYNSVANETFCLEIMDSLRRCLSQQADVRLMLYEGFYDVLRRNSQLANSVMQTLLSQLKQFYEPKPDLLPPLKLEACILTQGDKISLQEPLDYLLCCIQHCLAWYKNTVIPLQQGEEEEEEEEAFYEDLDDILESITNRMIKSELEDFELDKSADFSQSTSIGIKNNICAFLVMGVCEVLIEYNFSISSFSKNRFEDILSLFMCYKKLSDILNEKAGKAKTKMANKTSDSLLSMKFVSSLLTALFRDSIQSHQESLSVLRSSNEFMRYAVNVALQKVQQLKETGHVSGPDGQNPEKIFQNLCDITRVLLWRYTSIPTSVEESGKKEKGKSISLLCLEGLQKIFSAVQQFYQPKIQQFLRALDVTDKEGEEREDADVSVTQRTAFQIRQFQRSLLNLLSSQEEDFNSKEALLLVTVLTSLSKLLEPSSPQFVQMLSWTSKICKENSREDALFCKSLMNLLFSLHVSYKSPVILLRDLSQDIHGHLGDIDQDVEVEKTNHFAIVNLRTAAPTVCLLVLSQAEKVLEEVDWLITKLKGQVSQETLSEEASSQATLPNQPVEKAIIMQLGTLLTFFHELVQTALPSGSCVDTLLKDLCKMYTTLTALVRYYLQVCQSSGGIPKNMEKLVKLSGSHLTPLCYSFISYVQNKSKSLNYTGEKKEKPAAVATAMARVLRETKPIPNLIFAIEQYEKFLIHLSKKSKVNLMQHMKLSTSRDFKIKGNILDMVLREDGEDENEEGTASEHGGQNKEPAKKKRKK
Sequence of FANCD2-6A;FANCI (Q9BXW9 whole entry S882A/T884A/S886A/S891A/T896A/S898A, chain 1 of 2): as the sequence (Q9BXW9 whole entry, chain 1 of 2) above, with S882A, T884A, S886A, S891A, T896A, S898A counted along it
Sequence of FANCD2-6A;FANCI (Q9NVI1 whole entry, stated change not applied, chain 2 of 2): as the sequence (Q9NVI1 whole entry, chain 2 of 2) above

B1: ICL14 Y-shaped DNA (mixed)
DNA 1: CATTGTGAATTCGCCTCTCTGTCTAGCCGAAGCTCGAAACGATCTTGTGC
DNA 2: GTCCATCAAAGTTCGACTGTGCGGCTAGACAGAGAGGCGAATTCACAATG
Turning to B1, the binding result with FANCD2 WT;FANCI and in the series with FANCD2-6A;FANCI was “binds” throughout.

For the origin of these results see paper PMC6581795, “Phosphorylation of FANCD2 Inhibits the FANCD2/FANCI Complex and Suppresses the Fanconi Anemia Pathway in the Absence of DNA Damage”.
